This experiment concerns the target Full-length SARS-Cov-2-Nucleocapsid (FLN), WT (SARS-CoV-2). Put plainly: AUC.

The term stoichiometry N denotes the number of molecules, sites or subunits per partner or assembly. The substance “Full-length SARS-Cov-2-Nucleocapsid (FLN), WT (natural protein)” registered a stoichiometry N of 2.

The record behind these values is doi:10.1101/2023.05.26.542392.
